Results published in patent US20240092922A1 (EUCURE BEIJING BIOPHARMA, published 2024).

Biological target: T1, Histidine-tagged human 4-1BB protein (h4-1BB-His) (human, UniProt Q07011 24-186)
T1 construct: not shown: histidine tag
Experiment: SPR (Biacore T200), antibody on Protein A chip, h4-1BB-His injected;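 also: dissociation phase followed for 300 s, Kd derived as koff divided by kon from the kinetic fit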

| Binder | Kd [nM] | koff [s⁻¹] | kon [M⁻¹ s⁻¹] |
| --- | --- | --- | --- |
| 1C4-H2K2-IgG4 (antibody, V domains shown, humanized) VH: QVQMVQSGAEVKKPGASVKLSCKASGFTFSSSYINWLRQAPGQSLEWIGWIFAGTGGTYYNQKFTGRVQITRDTSASTAYMELSSLRSEDTAIYYCARHSPRATLFDFWGQGTTLTVSS VL: EIVLTQSPATLSLSPGERATLSCRASSSVNHMHWYQQKPGQAPRALIYATSNLASGIPARFSGSGSGTSFTLTISSLEPEDFATYYCQQWSSNPYTFGGGTKLEIK | 25.1 | 0.000646 | 25800 |
| 1C4-H4K1-IgG4 (antibody, V domains shown, humanized) VH: QGQMVQSGAEVKKPGASVKLSCKTSGFTFSSSYINWLRQAPGQSLEWIAWIFAGTGGTYYNQKFTGRAQLTVDTSASTAYMELSSLRSEDTAIYYCARHSPRATLFDFWGQGTTLTVSS VL: EIVLTQSPATLSLSPGERATLSCRASSSVNHMHWYQQKPGQAPRALIYATSNLASGIPARFSGSGSGTSFTLTISSLEPEDFAVYYCQQWSSNPYTFGGGTKLEIK | 18.2 | 0.000516 | 28400 |
| 1C4-H4K3-IgG4 (antibody, V domains shown, humanized) VH: QGQMVQSGAEVKKPGASVKLSCKTSGFTFSSSYINWLRQAPGQSLEWIAWIFAGTGGTYYNQKFTGRAQLTVDTSASTAYMELSSLRSEDTAIYYCARHSPRATLFDFWGQGTTLTVSS VL: EIVLTQSPATLSLSPGERATMSCRASSSVNHMHWYQQKPGFSPRAWIYATSNLASGIPARFSGSGSGTSFTLTISSLEPEDFATYYCQQWSSNPYTFGGGTKLEIK | 16.9 | 0.000556 | 32900 |
| 1C4-H3K3-IgG4 (antibody, V domains shown, humanized) VH: QVQMVQSGAEVKKPGASVKLSCKASGFTFSSSYINWLRQAPGQSLEWIGWIFAGTGGTYYNQKFTGRAQITRDTSASTAYMELSSLRSEDTAIYYCARHSPRATLFDFWGQGTTLTVSS VL: EIVLTQSPATLSLSPGERATMSCRASSSVNHMHWYQQKPGFSPRAWIYATSNLASGIPARFSGSGSGTSFTLTISSLEPEDFATYYCQQWSSNPYTFGGGTKLEIK | 17.1 | 0.000533 | 31200 |
| 1C4-H2K4-IgG4 (antibody, V domains shown, humanized) VH: QVQMVQSGAEVKKPGASVKLSCKASGFTFSSSYINWLRQAPGQSLEWIGWIFAGTGGTYYNQKFTGRVQITRDTSASTAYMELSSLRSEDTAIYYCARHSPRATLFDFWGQGTTLTVSS VL: EIVLTQSPATLSASPGERVTMSCRASSSVNHMHWYQQRPGFSPRAWIYATSNLASGIPARFSGSGSGTSYSLTISSLEPEDFATYYCQQWSSNPYTFGGGTKLEIK | 20.7 | 0.000521 | 25200 |
| 1C4-H3K2-IgG4 (antibody, V domains shown, humanized) VH: QVQMVQSGAEVKKPGASVKLSCKASGFTFSSSYINWLRQAPGQSLEWIGWIFAGTGGTYYNQKFTGRAQITRDTSASTAYMELSSLRSEDTAIYYCARHSPRATLFDFWGQGTTLTVSS VL: EIVLTQSPATLSLSPGERATLSCRASSSVNHMHWYQQKPGQAPRALIYATSNLASGIPARFSGSGSGTSFTLTISSLEPEDFATYYCQQWSSNPYTFGGGTKLEIK | 16.3 | 0.000453 | 27700 |
| 1C4-H4K2-IgG4 (antibody, V domains shown, humanized) VH: QGQMVQSGAEVKKPGASVKLSCKTSGFTFSSSYINWLRQAPGQSLEWIAWIFAGTGGTYYNQKFTGRAQLTVDTSASTAYMELSSLRSEDTAIYYCARHSPRATLFDFWGQGTTLTVSS VL: EIVLTQSPATLSLSPGERATLSCRASSSVNHMHWYQQKPGQAPRALIYATSNLASGIPARFSGSGSGTSFTLTISSLEPEDFATYYCQQWSSNPYTFGGGTKLEIK | 16.6 | 0.00049 | 29600 |
| 1C4-H3K4-IgG4 (antibody, V domains shown, humanized) VH: QVQMVQSGAEVKKPGASVKLSCKASGFTFSSSYINWLRQAPGQSLEWIGWIFAGTGGTYYNQKFTGRAQITRDTSASTAYMELSSLRSEDTAIYYCARHSPRATLFDFWGQGTTLTVSS VL: EIVLTQSPATLSASPGERVTMSCRASSSVNHMHWYQQRPGFSPRAWIYATSNLASGIPARFSGSGSGTSYSLTISSLEPEDFATYYCQQWSSNPYTFGGGTKLEIK | 15.9 | 0.000476 | 30000 |
